# Measurements: article PMC11848413, “Bacterial polysaccharide lyase family 33: Specificity from an evolutionarily conserved binding tunnel” (Proceedings of the National Academy of Sciences of the …, 2025)
# Assays:
# [1] = target: BT4410 (BtPL33^HA), PL33_1 hyaluronidase from Bacteroides thetaiotaomicron VPI-5482 (Bacteroides thetaiotaomicron VPI-5482); assay: SEC-MALS + other: SAXS; SEC-coupled light scattering and SAXS of the purified enzyme in solution, oligomeric state; conditions not shown (SI Appendix)
# [2] = target: the molecule itself; assay: as above
stoichiometry N [1],Molecule,stoichiometry N [2]
2,"BT4410 (BtPL33^HA), PL33_1 hyaluronidase from Bacteroides thetaiotaomicron VPI-5482 (enzyme)",–
–,"HMPREF1181_01744 (BsPL33^Heparosan), PL33_1 heparosanase from Bacteroides stercoris CC31F (enzyme) TERHLLEQTVSYEELGNVLRYRQSWVDYPAYTDRKSWKEKTAPEMRELIIRNGERALKHEWKPDLASDYLAFKRTGEIRTGRANHKALQALTLAELVEGQGRFMDAIIDGIWFLCETSWIHSAHLGFQKDRSGLPDRNEPTIELVVADIGAQMAWTYYFLKDEFDKVSPLINERIIEEVNRNLINPYFARDDYWWMGFGGQQVNNWNPWINYNVLQALMLIEKDPERVRQGVWKLMKSTDFFFSMYHEDGACDEGPTYWSGASGYALKFLDLLAKVTGNKVNIFNAPLLRNMAQYIYRVHIGGNYFVNFADSAPKVSPSPGILYRYGELTGDPAMMKFASFMAQQNQSFKDGVNGYFASALDELFMYKDIIGHPQGEPLTGTYWFKDTQICVARDTEGKSDGFFFAAKGGNNQESHNHNDVGSCILYYNALPVLIDAGVGTYTRQTFGPERYTIWTMQSDYHNLPLINGTPQKNGREFAAHSQQYKATAKTVSYQVDIAHAYPQEANVKSWIRNYTLHRKKDFTITDKWKLSACNEPSVLNLMTCCEVEIDRNKNITLTGEAGRFRVEYDKKLLSPATDTVELTDPKLIHSWNRKKLTRIRFTIVSQQISGESKLVIRKAQYHKTLND",2
–,"BcellWH2_04512 (BcPL33^HA), PL33_1 hyaluronidase from Bacteroides cellulosilyticus WH2 (enzyme, BcellWH2_04512, polysaccharide lyase family 33 subfamily 1 hyaluronidase of Bacteroides cellulosilyticus WH2; 68% identical to BtPL33^HA; Cloned in pET28a with either an N- or a C-terminal His6 tag; source: E. coli BL21 (DE3) or TUNER, purified (Talon cobalt IMAC, S200 Superdex SEC)) YTERNLLQKAAGSEEQLKEALVMNQKWVPYPAYNDRAGWNELLGTNKESLIRAGEKMLNYEWKVIRATDYLEYERSGERNIMQNPYEANRKAINALMLAELAEGKGRFIDQLINGAFYSCEMTSWVLSAHLVRQSTKRSLPDYREQVIDLGSGNFGSMLSWVYYFFHDSFDKIDPVISQRLRHTLQERILDPYMNNDREWWMAFQWKPGMIINNWNPWCNSNVLQCYLLLENDRDRLAKAVWRSMQSVDKFINFVKADGACEEGPSYWGHAAGKMYDYLQILSDGTDGKVSLFKEPMIRRMGEYISRTYVGNGWVVNFADASAKGGGDAPLIYRYGRAVGSEEMMQFAAYLLDGKRPSVPLGNDTFRSLQSILWNGELEKTTAAHTIPACTWYPETEFCYLTNKSGWFLATKGGFNNESHNHNDVGTFSLYVNTIPVLIDAGVGTYTRQTFSSERYTIWTMQSNYHNLPMINGVPQSFGQNYKATDVVCQPKKRFFSANIATAYPKEAEVNSWTRAYSLGDKQLTITDNFSLKSAKESNQVNFLTWGKVDISVPGKVTIDVQGQKVTLEYPGEFTATVETINLPDTRLSNVWGTEIYRIALKDKDARLTGKYKFVIK",2
